# Test results reported in the supplement of paper PMC9112550, “Optimization of the antimicrobial peptide Bac7 by deep mutational scanning” (BMC Biology, 2022).
# Tested on: Escherichia coli TOP10
# Test: shrunken log2 fold change of peptide-encoding DNA abundance (4.5 h post-induction vs induction); higher = less antimicrobial activity (less host growth inhibition)
# Conditions: time post-induction: 4.5 h; library: site-saturation at positions 5, 18, 19, 20
# 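Further: peptides expressed intracellularly from a pBAD plasmid library in pooled LB shake-flask culture, induced with 0.3% L-arabinose, DNA abundance read by NGS, three biological replicates, DESeq2 with apeglm shrinkage.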
row,Sequence,shrunken log2 fold change
1,RRIRGRPPRLPRPRPRPNSVPRP,-0.0052
2,RRIRWRPPRLPRPRPRPAAQPRP,-0.0638
3,RRIRIRPPRLPRPRPRPAHDPRP,0.0246
4,RRIRPRPPRLPRPRPRPDHTPRP,0.0191
5,RRIRRRPPRLPRPRPRPGEQPRP,0.301
6,RRIRRRPPRLPRPRPRPLLAPRP,0.887
7,RRIRRRPPRLPRPRPRPKQVPRP,0.351
8,RRIRTRPPRLPRPRPRPGSRPRP,0.365
9,RRIRWRPPRLPRPRPRPGLCPRP,0.412
10,RRIRRRPPRLPRPRPRPQQGPRP,0.0446
11,RRIRYRPPRLPRPRPRPVCTPRP,-0.569
12,RRIRCRPPRLPRPRPRPHHRPRP,-0.266
13,RRIRARPPRLPRPRPRPYYWPRP,-0.77
14,RRIRDRPPRLPRPRPRPPVIPRP,0.0554
15,RRIRHRPPRLPRPRPRPYVYPRP,-0.0796
16,RRIRLRPPRLPRPRPRPFFIPRP,-0.396
17,RRIRRRPPRLPRPRPRPFNIPRP,-0.491
18,RRIRIRPPRLPRPRPRPKEGPRP,0.00692
19,RRIRARPPRLPRPRPRPHVRPRP,-0.0112
20,RRIRRRPPRLPRPRPRPWANPRP,0.0142
21,RRIRHRPPRLPRPRPRPEFNPRP,0.0664
22,RRIRPRPPRLPRPRPRPEKGPRP,0.321
23,RRIRTRPPRLPRPRPRPMGRPRP,0.217
24,RRIRDRPPRLPRPRPRPVPRPRP,0.186
25,RRIRARPPRLPRPRPRPDQRPRP,0.267

row,Sequence,shrunken log2 fold change
1,RRIRRRPPRLPRPRPRPMKEPRP,0.135
2,RRIRKRPPRLPRPRPRPGTSPRP,0.0376
3,RRIRRRPPRLPRPRPRPRGIPRP,0.169
4,RRIRQRPPRLPRPRPRPFYFPRP,-0.697
5,RRIRRRPPRLPRPRPRPFPSPRP,0.114
6,RRIRHRPPRLPRPRPRPFNNPRP,-0.159
7,RRIRQRPPRLPRPRPRPSKQPRP,-0.0831
8,RRIRTRPPRLPRPRPRPILEPRP,-0.0122
9,RRIRIRPPRLPRPRPRPTFKPRP,-0.102
10,RRIRLRPPRLPRPRPRPFMYPRP,-1.5
11,RRIRQRPPRLPRPRPRPCEFPRP,-0.311
12,RRIRIRPPRLPRPRPRPVRHPRP,-0.0859
13,RRIRPRPPRLPRPRPRPEMVPRP,0.191
14,RRIRRRPPRLPRPRPRPHDTPRP,-0.0817
15,RRIRHRPPRLPRPRPRPLHPPRP,-0.148
16,RRIRKRPPRLPRPRPRPKMQPRP,0.00648
17,RRIRHRPPRLPRPRPRPPLIPRP,-0.0533
18,RRIRIRPPRLPRPRPRPCLCPRP,2.05
19,RRIRTRPPRLPRPRPRPKPLPRP,-0.0401
20,RRIRWRPPRLPRPRPRPPCTPRP,0.124
21,RRIRPRPPRLPRPRPRPMYEPRP,-0.527
22,RRIRDRPPRLPRPRPRPMCVPRP,0.101
23,RRIRRRPPRLPRPRPRPMEGPRP,0.0518
24,RRIRKRPPRLPRPRPRPFCIPRP,0.0646
25,RRIRLRPPRLPRPRPRPVHYPRP,-0.498

row,Sequence,shrunken log2 fold change
1,RRIRNRPPRLPRPRPRPFVCPRP,-0.45
2,RRIRNRPPRLPRPRPRPTWAPRP,0.374
3,RRIRCRPPRLPRPRPRPDTFPRP,0.0257
4,RRIRCRPPRLPRPRPRPMDCPRP,-0.0376
5,RRIRGRPPRLPRPRPRPPESPRP,0.873
6,RRIRPRPPRLPRPRPRPKMRPRP,0.903
7,RRIRERPPRLPRPRPRPPVSPRP,0.0232
8,RRIRTRPPRLPRPRPRPRTWPRP,-0.0887
9,RRIRGRPPRLPRPRPRPRTCPRP,0.592
10,RRIRDRPPRLPRPRPRPTGPPRP,0.334
11,RRIRKRPPRLPRPRPRPLDSPRP,0.233
12,RRIRYRPPRLPRPRPRPYQRPRP,-0.00973
13,RRIRMRPPRLPRPRPRPCRSPRP,0.0369
14,RRIRPRPPRLPRPRPRPFIIPRP,-0.854
15,RRIRRRPPRLPRPRPRPWPTPRP,0.0393
16,RRIRGRPPRLPRPRPRPARQPRP,0.654
17,RRIRPRPPRLPRPRPRPIYSPRP,-0.225
18,RRIRERPPRLPRPRPRPFRPPRP,-0.179
19,RRIRTRPPRLPRPRPRPNHIPRP,-0.825
20,RRIRTRPPRLPRPRPRPCQFPRP,-0.0244
21,RRIRHRPPRLPRPRPRPTDQPRP,-0.00155
22,RRIRCRPPRLPRPRPRPLKHPRP,-0.584
23,RRIRIRPPRLPRPRPRPAHKPRP,0.0491
24,RRIRRRPPRLPRPRPRPCQGPRP,-0.129
25,RRIRGRPPRLPRPRPRPHMVPRP,-0.0598
